Data: paper PMC6769641

Assays:
[1] = molecular target: catalase from sweet pepper (Capsicum annuum L.) fruits (Capsicum annuum (endogenous in sweet pepper fruits)) (UniProt Q9M5L6); experiment: native gel or EMSA; Hedrick and Smith method: non-denaturing PAGE at 5-7% acrylamide, catalase activity staining in gels; BSA monomer, dimer, trimer and tetramer as molecular weight standards
[2] = molecular target: catalase from sweet pepper (Capsicum annuum L.) fruits (Capsicum annuum (endogenous in sweet pepper fruits)) (UniProt Q9M5L6); experiment: SEC; FPLC gel filtration on Superose 12 in 50 mM Tris-HCl, pH 8.0; ammonium sulfate fraction (20-80%) of green pepper fruit extract; catalase activity followed in fractions; column calibrated with rubisco, ferritin, aldolase, phosphorylase b and myoglobin

For “catalase from sweet pepper (Capsicum annuum L.) fruits (from UniProt Q9M5L6 1-492) (enzyme)”, the stoichiometry N [1] was 2 and the stoichiometry N [2] was 2.
